Test results taken from publication PMC5056641 (The Biochemical journal, 2014).

How the values were obtained:
[1] = biological target: His-CLK1 (Cdc2-like kinase 1, mouse) (mouse, UniProt P22518 1-483); assay: pull-down
GST-SRSF1 = GST-SRSF1 (human, UniProt Q07955 1-248); assay: pull-down
Sequence of GST-SRSF1 (Q07955 whole entry): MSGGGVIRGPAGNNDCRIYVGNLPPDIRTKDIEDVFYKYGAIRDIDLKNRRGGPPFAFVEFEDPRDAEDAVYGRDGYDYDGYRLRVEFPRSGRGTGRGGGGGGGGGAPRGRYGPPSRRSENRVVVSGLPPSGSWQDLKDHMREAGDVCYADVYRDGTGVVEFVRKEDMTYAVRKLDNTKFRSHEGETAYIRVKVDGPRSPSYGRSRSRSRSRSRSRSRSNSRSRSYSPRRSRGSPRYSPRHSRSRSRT

Row | binding result [1] | binding result (GST-SRSF1) | Binder
1 | binds | – | GST-N (CLK1 residues 1-160) (domain or fragment, mouse, UniProt P22518 1-160, looked up) MRHSKRTYCPDWDERDWDYGTWRSSSSHKRKKRSHSSAREQKRCRYDHSKTTDSYYLESRSINEKAYHSRRYVDEYRNDYMGYEPGHPYGEPGSRYQMHSSKSSGRSGRSSYKSKHRSRHHTSQHHSHGKSHRRKRSRSVEDDEEGHLICQSGDVLSARY
2 | – | binds | His-N (CLK1 residues 1-160) (domain or fragment, mouse, UniProt P22518 1-160, looked up) MRHSKRTYCPDWDERDWDYGTWRSSSSHKRKKRSHSSAREQKRCRYDHSKTTDSYYLESRSINEKAYHSRRYVDEYRNDYMGYEPGHPYGEPGSRYQMHSSKSSGRSGRSSYKSKHRSRHHTSQHHSHGKSHRRKRSRSVEDDEEGHLICQSGDVLSARY
